From paper PMC5288196, “Native and engineered tropism of vectors derived from a rare species D adenovirus serotype 43” (Oncotarget, 2016)

Molecular target: T1, adenovirus serotype 5 virions (human adenovirus serotype 5)
T1 chain: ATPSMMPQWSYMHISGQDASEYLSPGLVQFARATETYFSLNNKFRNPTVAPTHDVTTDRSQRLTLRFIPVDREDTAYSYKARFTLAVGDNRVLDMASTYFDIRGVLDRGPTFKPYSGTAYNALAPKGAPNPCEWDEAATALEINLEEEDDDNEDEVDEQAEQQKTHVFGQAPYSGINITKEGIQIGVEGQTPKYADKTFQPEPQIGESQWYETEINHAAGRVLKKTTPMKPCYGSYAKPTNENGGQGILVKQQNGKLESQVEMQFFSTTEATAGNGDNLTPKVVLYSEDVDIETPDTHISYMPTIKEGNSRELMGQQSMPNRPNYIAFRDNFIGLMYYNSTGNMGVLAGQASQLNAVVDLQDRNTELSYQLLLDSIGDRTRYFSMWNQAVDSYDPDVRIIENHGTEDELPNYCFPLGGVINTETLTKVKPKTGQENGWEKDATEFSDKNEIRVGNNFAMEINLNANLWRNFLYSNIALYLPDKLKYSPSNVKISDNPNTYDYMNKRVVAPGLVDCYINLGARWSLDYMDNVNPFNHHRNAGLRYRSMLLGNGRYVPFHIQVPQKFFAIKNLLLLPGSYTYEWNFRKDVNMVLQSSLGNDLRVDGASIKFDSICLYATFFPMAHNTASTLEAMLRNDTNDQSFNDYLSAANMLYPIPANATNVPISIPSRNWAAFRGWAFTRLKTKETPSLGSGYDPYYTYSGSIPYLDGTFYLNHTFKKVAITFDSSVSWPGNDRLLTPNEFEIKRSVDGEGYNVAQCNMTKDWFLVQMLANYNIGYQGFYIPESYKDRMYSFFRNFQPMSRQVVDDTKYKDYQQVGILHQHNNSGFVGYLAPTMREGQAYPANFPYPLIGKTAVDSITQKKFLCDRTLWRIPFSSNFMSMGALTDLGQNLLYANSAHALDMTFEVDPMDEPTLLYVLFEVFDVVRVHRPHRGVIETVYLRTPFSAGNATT
Assay: SPR; Ad virions immobilised on the chip, probed with soluble FX in serial two-fold dilutions from 0.4 to 25 μg/ml, in duplicates
Conditions: both partners purified

B1: blood coagulation factor X (natural protein)
chain 1: ANSFLEEMKKGHLERECMEETCSYEEAREVFEDSDKTNEFWNKYKDGDQCETSPCQNQGKCKDGLGEYTCTCLEGFEGKNCELFTRKLCSLDNGDCDQFCHEEQNSVVCSCARGYTLADNGKACIPTGPYPCGKQTLER
chain 2: SVAQATSSSGEAPDSITWKPYDAADLDPTENPFDLLDFNQTQPERGDNNLTRIVGGQECKDGECPWQALLINEENEGFCGGTILSEFYILTAAHCLYQAKRFKVRVGDRNTEQEEGGEAVHEVEVVIKHNRFTKETYDFDIAVLRLKTPITFRMNVAPACLPERDWAESTLMTQKTGIVSGFGRTHEKGRQSTRLKMLEVPYVDRNSCKLSSSFIITQNMFCAGYDTKQEDACQGDSGGPHVTRFKDTYFVTGIVSWGEGCARKGKYGIYTKVTAFLKWIDRSMKTRGLPKAKSHAPEVITSSPLK
modifications: Zymogen FX assumed (not FXa): light chain disulfide-linked to heavy chain with the activation peptide retained. Gamma-carboxylated Gla domain, beta-hydroxy-Asp, N-/O-glycosylation; Ca2+-bound state …
  Kd: 1.5 nM
